According to US20030171551A1 (published 2003):

Biological target: T1, soluble extracellular domain of HER2/neu (ECD) (UniProt P04626 23-652, limits assumed)
T1 construct: extracellular domain; Immobilized on the IAsys microcuvette; also called soluble HER2/neu antigen
Experiment: IAsys optical biosensor, HER2/neu ECD immobilized on the cuvette

B1: RANTES.Her2.IgG3 (other)
chain: SPYSSDTTPCCFAYIARPLPRAHIKEYFYTSGKCSNPAVVFVTRKNRQVCANPEKKWVREYINSLEMS
B1 showed a Kd of 53 nM.
